The target of experiment [1] is 3C8 iAb_(aff1) Fab (anti-OX40 clone 3C8 engrafted with the iAb_(aff1) residue set, expressed as a monomeric Fab).
The target is the same in experiment [2]. Briefly: AUC; sedimentation velocity; 3C8 iAb_(aff1) Fab at 0.6, 0.2 and 0.07 mg/ml in 25 mM histidine acetate pH 5.5, 150 mM NaCl; 20 °C, 50,000 RPM; global fit to a monomer-dimer equilibrium model (dimer to monomers).

OX40 agonism of the monomeric Fab in Jurkat OX40 NF-kB luciferase reporter cells; EC50 against the full-length iAb (aff1) IgG, Kd and stoichiometry N data for one molecule are collected here from paper PMC10799922.

B1: 3C8 iAb_(aff1) Fab (anti-OX40 clone 3C8 engrafted with the iAb_(aff1) residue set, expressed as a monomeric Fab) (Fab, V domains shown)
VH: EVQLVQSGAEVKKPGATVVVLCKASGYAFTNYLIEWVRQAPGQGLEWIGVINPGSGDTYYSEKFKGRVTLFADTSTSQAILILTSLRSEDTAVYYCARDRLDYWGQGTLVTVSS
VL: DIQMTQSPSSLSASVGDRVTITCHASQDISSYIVWYQQKPGKSFKGLIYHGTNLESGVPSRFSGSGSGTDFTLTISSLQPEDFATYYCVHYAQFPYTFGQGTKVEIK
Take B1: the OX40 agonism of the monomeric Fab in Jurkat OX40 NF-kB luciferase reporter cells; EC50 against the full-length iAb (aff1) IgG in experiment [1] stood at 100 fold. In experiment [2], this molecule gave a Kd of 6.8 µM and a stoichiometry N of 2.

By Kd is commonly meant the equilibrium constant for the complex coming apart. High values mean weaker binding, low ones tighter binding. One may read the stoichiometry N as the number of molecules, sites or subunits per partner or assembly.
